According to US20210246166A1 (Bayer, published 2021):
Numbered stars: 1 amine (or outer) side, 2 acyl side, 3 side chain; on linkers, the order of the positions; unused ones are H or OH. Bridge positions count the residues as written; N and C are the ends. Square brackets hold non-standard residues; d marks the D form. Ends that are not written are not given here. (N-Benzyl)D = (2S)-2-Amino-4-(benzylamino)-4-oxobutanecarboxylic acid, O=C(C[C@H](N[*:1])C(=O)[*:2])NCc1ccccc1; X10 = (2R)‑2‑amino‑3‑(trifluoromethylsulfanyl)propanoic acid, O=C([C@H](CSC(F)(F)F)N[*:1])[*:2]; (S)‑3‑(2H-tetrazol-5-yl)propanoic acid = (S)-3-(2H-tetrazol-5-yl)propanoic acid; Phe(2,5-diF) = O=C([C@H](Cc1cc(F)ccc1F)N[*:1])[*:2]; NH(CH2CH2O)4CH2CO = O=C(COCCOCCOCCOCCN[*:1])[*:2]; PEG9 = NCCOCCOCCOCCOCCOCCOCCOCCOCCOCCC(=O)O; Pro(4-spirocPr) = O=C(O)[C@@H]1CC2(CC2)CN1; Oic = O=C(O)[C@@H]1C[C@@H]2CCCC[C@@H]2N1; tBuAla = CC(C)(C)C[C@H](N)C(=O)O; Pen = CC(C)(S)[C@H](N)C(=O)O; NMeC = CN[C@@H](CS)C(=O)O; NMeA = CN[C@@H](C)C(=O)O; Orn = NCCC[C@H](N)C(=O)O; PEG2 = NCCOCCOCCC(=O)O; dβPro = D-beta-Proline; Sar = CNCC(=O)O

T1: recombinant human MASP1 active protease (amino acids 297-699, C-terminal His Tag) (human, UniProt P48740 297-699)
T1 sequence: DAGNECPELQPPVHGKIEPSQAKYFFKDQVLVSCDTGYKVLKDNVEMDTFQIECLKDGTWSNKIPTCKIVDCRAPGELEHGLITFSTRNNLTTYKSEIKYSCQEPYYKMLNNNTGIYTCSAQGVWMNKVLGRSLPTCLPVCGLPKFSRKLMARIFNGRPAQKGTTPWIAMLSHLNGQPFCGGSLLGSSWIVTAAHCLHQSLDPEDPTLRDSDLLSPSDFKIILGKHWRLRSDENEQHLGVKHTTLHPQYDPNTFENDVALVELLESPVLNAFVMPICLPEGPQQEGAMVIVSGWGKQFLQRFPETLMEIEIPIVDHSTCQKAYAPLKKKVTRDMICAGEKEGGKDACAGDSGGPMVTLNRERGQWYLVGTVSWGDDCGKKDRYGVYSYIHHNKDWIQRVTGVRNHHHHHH

T2: Recombinant human MASP1 enzyme (fragment corresponding to amino acids 297-699, C-terminal His Tag) (human, UniProt P48740 297-699)
T2 sequence: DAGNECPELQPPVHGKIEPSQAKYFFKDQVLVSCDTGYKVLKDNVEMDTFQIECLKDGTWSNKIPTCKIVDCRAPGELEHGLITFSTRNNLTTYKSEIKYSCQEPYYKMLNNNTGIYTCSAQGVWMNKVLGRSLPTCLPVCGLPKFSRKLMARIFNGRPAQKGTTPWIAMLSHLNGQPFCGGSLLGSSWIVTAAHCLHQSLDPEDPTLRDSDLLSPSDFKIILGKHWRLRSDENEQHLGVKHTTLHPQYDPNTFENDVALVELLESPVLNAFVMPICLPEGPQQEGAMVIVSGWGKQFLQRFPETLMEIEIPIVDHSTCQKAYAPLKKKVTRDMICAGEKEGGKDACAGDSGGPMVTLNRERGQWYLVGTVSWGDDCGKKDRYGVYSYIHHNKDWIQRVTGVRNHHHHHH


Legend:
Assay in all cases: cell-based or functional assay
[1] = molecular target: recombinant human MASP2 active protease (amino acids 297-686, C-terminal His Tag) (human, UniProt O00187 297-686)
[2] = molecular target: T1, recombinant human MASP1 active protease …
[3] = molecular target: T2, Recombinant human MASP1 enzyme …
[4] = molecular target: Recombinant human MASP2 enzyme (fragment corresponding to amino acids 297-686, C-terminal His Tag) (human, UniProt O00187 297-686)
Chain of Recombinant human MASP2 enzyme (fragment corresponding to amino acids 297-686, C-terminal His Tag) (O00187 other isoform, or with tags, fused parts or gaps limits assumed): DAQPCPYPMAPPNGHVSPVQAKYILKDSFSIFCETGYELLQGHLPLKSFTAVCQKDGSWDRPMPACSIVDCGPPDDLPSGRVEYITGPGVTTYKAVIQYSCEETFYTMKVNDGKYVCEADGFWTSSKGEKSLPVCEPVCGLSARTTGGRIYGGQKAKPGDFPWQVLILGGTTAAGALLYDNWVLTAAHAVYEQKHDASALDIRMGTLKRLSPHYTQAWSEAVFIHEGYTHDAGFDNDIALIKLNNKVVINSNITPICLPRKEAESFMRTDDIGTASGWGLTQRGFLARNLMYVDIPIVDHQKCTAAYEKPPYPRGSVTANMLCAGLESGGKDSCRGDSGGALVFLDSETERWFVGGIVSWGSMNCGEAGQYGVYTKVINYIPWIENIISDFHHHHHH

Chain of recombinant human MASP2 active protease (amino acids 297-686, C-terminal His Tag) (O00187 other isoform, or with tags, fused parts or gaps limits assumed): as above

human MASP2 IC50 [1] [nM]	human MASP1 IC50 [2] [nM]	human MASP1 IC50 [3] [nM]	human MASP2 IC50 [4] [nM]	Binder
24.5	1.83			AICSRS[tBuAla]P[Pro(4-spirocPr)]I[Pen]IPD-NH2 (disulfide 3-11; N-terminus assumed; SMILES CC[C@H](C)[C@H](NC(=O)[C@H](C)N)C(=O)N[C@H]1CSSC(C)(C)[C@@H](C(=O)N[C@H](C(=O)N2CCC[C@H]2C(=O)N[C@@H](CC(=O)O)C(N)=O)[C@@H](C)CC)NC(=O)[C@H]([C@@H](C)CC)NC(=O)[C@@H]2CC3(CC3)CN2C(=O)[C@@H]2CCCN2C(=O)[C@H](CC(C)(C)C)NC(=O)[C@H](CO)NC(=O)[C@H](CCCNC(=N)N)NC(=O)[C@H](CO)NC1=O) [AIC+SRS-((tBu)A)-P-((6S)-5-Azaspiro[2.4]heptane-6-carboxylic acid)-I-(Pen)+IPD-NH2]
120	1.7			AICSRS[tBuAla]PPICI-NH2 (disulfide 3-11; N-terminus assumed; SMILES CC[C@H](C)[C@H](NC(=O)[C@@H]1CSSC[C@H](NC(=O)[C@@H](NC(=O)[C@H](C)N)[C@@H](C)CC)C(=O)N[C@@H](CO)C(=O)N[C@@H](CCCNC(=N)N)C(=O)N[C@@H](CO)C(=O)N[C@@H](CC(C)(C)C)C(=O)N2CCC[C@H]2C(=O)N2CCC[C@H]2C(=O)N[C@@H]([C@@H](C)CC)C(=O)N1)C(N)=O) [AIC+SRS-((tBu)A)-PPIC+I-NH2]
76	1.8			[NMeA]ICSRS[tBuAla]P[Oic]I[Pen]I-NH2 (disulfide 3-11; N-terminus assumed; SMILES CC[C@H](C)[C@H](NC(=O)[C@H]1NC(=O)[C@H]([C@@H](C)CC)NC(=O)[C@@H]2C[C@@H]3CCCC[C@@H]3N2C(=O)[C@@H]2CCCN2C(=O)[C@H](CC(C)(C)C)NC(=O)[C@H](CO)NC(=O)[C@H](CCCNC(=N)N)NC(=O)[C@H](CO)NC(=O)[C@@H](NC(=O)[C@@H](NC(=O)[C@H](C)NC)[C@@H](C)CC)CSSC1(C)C)C(N)=O) [((N-Me)A)-IC+SRS-((tBu)A)-P-(Oic)-I-(Pen)+I-NH2]
87	1.7			RICSRS[tBuAla]PPI[NMeC]I-NH2 (disulfide 3-11; N-terminus assumed; SMILES CC[C@H](C)[C@H](NC(=O)[C@@H]1CSSC[C@H](NC(=O)[C@@H](NC(=O)[C@@H](N)CCCNC(=N)N)[C@@H](C)CC)C(=O)N[C@@H](CO)C(=O)N[C@@H](CCCNC(=N)N)C(=O)N[C@@H](CO)C(=O)N[C@@H](CC(C)(C)C)C(=O)N2CCC[C@H]2C(=O)N2CCC[C@H]2C(=O)N[C@@H]([C@@H](C)CC)C(=O)N1C)C(N)=O) [RIC+SRS-((tBu)A)-PPI-((N-Me)C)+I-NH2]
36	1.8			[Sar]ICSRS[tBuAla]PPI[Pen]IP[(S)‑3‑(2H-tetrazol-5-yl)propanoic acid]-NH2 (disulfide 3-11) [((N-Me)G)-IC+SRS-((tBu)A)-PPI-(Pen)+IP-((S)-3-(2H-tetrazol-5-yl)propanoic acid)-NH2]
40	1.8			AICSRS[tBuAla]P[Pro(4-spirocPr)]I[NMeC]IPD-NH2 (disulfide 3-11; N-terminus assumed; SMILES CC[C@H](C)[C@H](NC(=O)[C@H](C)N)C(=O)N[C@H]1CSSC[C@@H](C(=O)N[C@H](C(=O)N2CCC[C@H]2C(=O)N[C@@H](CC(=O)O)C(N)=O)[C@@H](C)CC)N(C)C(=O)[C@H]([C@@H](C)CC)NC(=O)[C@@H]2CC3(CC3)CN2C(=O)[C@@H]2CCCN2C(=O)[C@H](CC(C)(C)C)NC(=O)[C@H](CO)NC(=O)[C@H](CCCNC(=N)N)NC(=O)[C@H](CO)NC1=O) [AIC+SRS-((tBu)A)-P-((6S)-5-Azaspiro[2.4]heptane-6-carboxylic acid)-I-((N-Me)C)+IPD-NH2]
		18		[Sar]ICSRS[Phe(2,5-diF)]PPI[Pen]IPD-OH (disulfide 3-11; N-terminus assumed; SMILES CC[C@H](C)[C@H](NC(=O)CNC)C(=O)N[C@H]1CSSC(C)(C)[C@@H](C(=O)N[C@H](C(=O)N2CCC[C@H]2C(=O)N[C@@H](CC(=O)O)C(=O)O)[C@@H](C)CC)NC(=O)[C@H]([C@@H](C)CC)NC(=O)[C@@H]2CCCN2C(=O)[C@@H]2CCCN2C(=O)[C@H](Cc2cc(F)ccc2F)NC(=O)[C@H](CO)NC(=O)[C@H](CCCNC(=N)N)NC(=O)[C@H](CO)NC1=O) [((N-Me)G)-IC+SRS-((2,5-Difluoro)F)-PPI-(Pen)+IPD-OH]
		6.2	76	[Sar]ICSRS[tBuAla]PPI[Pen]IP[NH(CH2CH2O)4CH2CO]-OH (disulfide 3-11; N-terminus assumed; SMILES CC[C@H](C)[C@H](NC(=O)CNC)C(=O)N[C@H]1CSSC(C)(C)[C@@H](C(=O)N[C@H](C(=O)N2CCC[C@H]2C(=O)NCCOCCOCCOCCOCC(=O)O)[C@@H](C)CC)NC(=O)[C@H]([C@@H](C)CC)NC(=O)[C@@H]2CCCN2C(=O)[C@@H]2CCCN2C(=O)[C@H](CC(C)(C)C)NC(=O)[C@H](CO)NC(=O)[C@H](CCCNC(=N)N)NC(=O)[C@H](CO)NC1=O) [((N-Me)G)-IC+SRS-((tBu)A)-PPI-(Pen)+IP-(PEG4-CH2CO2H(15 atoms))-OH]

Continued, binder first:

Binder	human MASP2 IC50 [1] [nM]	human MASP1 IC50 [2] [nM]	human MASP1 IC50 [3] [nM]	human MASP2 IC50 [4] [nM]
[dβPro]ICSRS[tBuAla]PPI[Pen]IPD-OH (disulfide 3-11) [(beta-p)-IC+SRS-((tBu)A)-PPI-(Pen)+IPD-OH]			2.5	
[Sar]ICSRS[(2S)‑2‑Amino‑5‑methyl‑hexanoic acid]PPI[Pen]IPD-OH (disulfide 3-11) [((N-Me)G)-IC+SRS-((2S)-2-Amino-5-methyl-hexanoic acid)-PPI-(Pen)+IPD-OH]			65	70
AICSRS[tBuAla]P[Pro(4-spirocPr)]I[Pen]IPD-OH (disulfide 3-11; N-terminus assumed; SMILES CC[C@H](C)[C@H](NC(=O)[C@H](C)N)C(=O)N[C@H]1CSSC(C)(C)[C@@H](C(=O)N[C@H](C(=O)N2CCC[C@H]2C(=O)N[C@@H](CC(=O)O)C(=O)O)[C@@H](C)CC)NC(=O)[C@H]([C@@H](C)CC)NC(=O)[C@@H]2CC3(CC3)CN2C(=O)[C@@H]2CCCN2C(=O)[C@H](CC(C)(C)C)NC(=O)[C@H](CO)NC(=O)[C@H](CCCNC(=N)N)NC(=O)[C@H](CO)NC1=O) [AIC+SRS-((tBu)A)-P-((6S)-5-Azaspiro[2.4]heptane-6-carboxylic acid)-I-(Pen)+IPD-OH]	17.7	1.57		
[Orn]ICSRS[X10]PPI[Pen]IPD-OH (disulfide 3-11; N-terminus assumed; SMILES CC[C@H](C)[C@H](NC(=O)[C@@H](N)CCCN)C(=O)N[C@H]1CSSC(C)(C)[C@@H](C(=O)N[C@H](C(=O)N2CCC[C@H]2C(=O)N[C@@H](CC(=O)O)C(=O)O)[C@@H](C)CC)NC(=O)[C@H]([C@@H](C)CC)NC(=O)[C@@H]2CCCN2C(=O)[C@@H]2CCCN2C(=O)[C@H](CSC(F)(F)F)NC(=O)[C@H](CO)NC(=O)[C@H](CCCNC(=N)N)NC(=O)[C@H](CO)NC1=O) [(Orn)-IC+SRS-((2R)-2-amino-3-(trifluoromethylsulfanyl)propanoic acid)-PPI-(Pen)+IPD-OH]			3.1	
[Sar]ICSRS[2‑Amino‑5,5,5‑trifluoro‑4‑methyl‑pentanoic acid]PPI[Pen]IPD-OH (disulfide 3-11) [((N-Me)G)-IC+SRS-(2-Amino-5,5,5-trifluoro-4-methyl-pentanoic acid)-PPI-(Pen)+IPD-OH]			14	330
[NMeA]ICSRSLP[Oic]I[Pen]IP[(N-Benzyl)D]-NH2 (disulfide 3-11) [((N-Me)A)-IC+SRSLP-(Oic)-I-(Pen)+IP-((N-Benzyl)D)-NH2]			12	
[Sar]ICSRS[tBuAla]PPI[Pen]IP-{PEG9-NH2} (disulfide 3-11) [((N-Me)G)-IC+SRS-((tBu)A)-PPI-(Pen)+IP-(PEG9(31 atoms))-NH2]	73	1.8		
AICSRSLP[Pro(4-spirocPr)]I[Pen]IPD-OH (disulfide 3-11; N-terminus assumed; SMILES CC[C@H](C)[C@H](NC(=O)[C@H](C)N)C(=O)N[C@H]1CSSC(C)(C)[C@@H](C(=O)N[C@H](C(=O)N2CCC[C@H]2C(=O)N[C@@H](CC(=O)O)C(=O)O)[C@@H](C)CC)NC(=O)[C@H]([C@@H](C)CC)NC(=O)[C@@H]2CC3(CC3)CN2C(=O)[C@@H]2CCCN2C(=O)[C@H](CC(C)C)NC(=O)[C@H](CO)NC(=O)[C@H](CCCNC(=N)N)NC(=O)[C@H](CO)NC1=O) [AIC+SRSLP-((6S)-5-Azaspiro[2.4]heptane-6-carboxylic acid)-I-(Pen)+IPD-OH]	26	1.65		
AICSRSL[(1S,2S,5R)‑3‑Azabicyclo(3.1.0)hexane‑2‑carboxylic acid]PI[Pen]IPD-OH (disulfide 3-11) [AIC+SRSL-((1S,2S,5R)-3-Azabicyclo[3.1.0]hexane-2-carboxylic acid)-PI-(Pen)+IPD-OH]			1.7	27
KICSRS[tBuAla]PPI[NMeC]IPD-NH2 (disulfide 3-11; N-terminus assumed; SMILES CC[C@H](C)[C@H](NC(=O)[C@@H](N)CCCCN)C(=O)N[C@H]1CSSC[C@@H](C(=O)N[C@H](C(=O)N2CCC[C@H]2C(=O)N[C@@H](CC(=O)O)C(N)=O)[C@@H](C)CC)N(C)C(=O)[C@H]([C@@H](C)CC)NC(=O)[C@@H]2CCCN2C(=O)[C@@H]2CCCN2C(=O)[C@H](CC(C)(C)C)NC(=O)[C@H](CO)NC(=O)[C@H](CCCNC(=N)N)NC(=O)[C@H](CO)NC1=O) [KIC+SRS-((tBu)A)-PPI-((N-Me)C)+IPD-NH2]	120	1.65		
[Sar]ICSRS[tBuAla]PPI[Pen]IP[PEG2]-NH2 (disulfide 3-11; also: HCl salt) [((N-Me)G)-IC+SRS-((tBu)A)-PPI-(Pen)+IP-(PEG1(10 atoms))-NH2 (HCl salt)]	31	1.7		
